The source of these data is article PMC1626105.

In the test the target is Elongin B, expressed in Saos-2 cells (UniProt Q15370). As to the kind of experiment: co-immunoprecipitation (IP: myc, IB: HA) with band densitometry. The settings on record: Saos-2 cells co-transfected with LANA-myc and HA-Elo.BC; parent: est. 4.0; read off a plot.
Chain of UniProt Q15370 (Q15370 whole entry): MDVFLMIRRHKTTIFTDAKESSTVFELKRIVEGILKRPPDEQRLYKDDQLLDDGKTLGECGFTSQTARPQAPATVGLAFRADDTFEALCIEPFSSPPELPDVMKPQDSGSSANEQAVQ
Consider “KSHV latency-associated nuclear antigen (LANA), full length, myc-tagged C217G”, for which the response was determined as 0.4 RD.
Regarding “KSHV latency-associated nuclear antigen (LANA), full length, myc-tagged L213G”, the response turned out to be 0.4 RD.
Regarding “KSHV latency-associated nuclear antigen (LANA), full length, myc-tagged L213P; C217F”, the response was 1.3 RD.
